These results are taken from US20130331550A1 (TECHNISCHE UNIVERSITAET MUENCHEN, published 2013).

The series deals with the molecule itself. In words: analytical size exclusion chromatography and analytical ultracentrifugation (sedimentation equilibrium); self-association (dimer) not seen. In general terms: Size exclusion chromatography separates by hydrodynamic size, large species first.

Description: Bovine serum albumin (66 kDa, Vᵣ=9.861 ml), carbonic anhydrase (29 kDa, Vᵣ=12.35 ml), myoglobin (17.05 kDa, Vᵣ=13.244 ml), cytochrome C (12.4 kDa, Vᵣ=14.11 ml), and aprotinin (6.5 kDa, Vᵣ=16.35 ml) were used as protein size standards for calibration of the column while the void volume was determined with blue dextran (V₀=8.08 ml).
Sedimentation equilibrium experiments were performed using an XL-I analytical ultracentrifuge and a Ti-60 rotor equipped with a UV/Vis as well as interference detector (Beckman, Fullerton, Calif.). An 0.8 mg/ml solution of the purified recombinant Blc in 150 mM NaCl, 1 mM EDTA, 100 M Tris/HCl pH 8.0 was applied to six-sector 12 mm path length cells. The samples were centrifuged at 25000 rpm for 72 h at 4° C., until equilibrium was reached, whereby the protein gradient was measured by UV absorption at 280 nm.

B1: recombinant Blc (Escherichia coli bacterial lipocalin, Cys1Ala/Cys113Ser, C-terminal Strep-tag II, as encoded on pBlc2) (other)
chain: ASSPTPPRGVTVVNNFDAKRYLGTWYEIARFDHRFERGLEKVTATYSLRDDGGLNVINKGYNPDRGMWQQSEGKAYFTGAPTRAALKVSFFGPFYGGYNVIALDREYRHALVSGPDRDYLWILSRTPTISDEVKQEMLAVATREGFDVSKFIWVQQPGSAWSHPQFEK
notes: The construct has 168 residues (159 + 9 tag residues)
Consider B1, for which the binding result is listed as “no binding (tested: about 40 µM)”.
